The text below walks through data of US20240287457A1, “COMPOSITIONS AND CELL CULTURE MEDIA FOR INCREASING NEUTROPHIL LIFESPAN” (THE CHILDREN'S MEDICAL CENTER CORPORATION, priority 2021, published 2024).

In one series the test system is neutrophils. Conditions: 20 hours at 37° C. in anoxic culture medium with 3 mM glucose and 32 mg/mL DMOG; from about 1 day; cited from earlier work.
The subject of the next series is caspases. The following applies: pan-caspase inhibitor; cited from earlier work.
Series [1] deals with murine neutrophils. Description: In vitro neutrophil death / survival of cultured murine neutrophils. It is filed as cell-based, mouse. Conditions: for healthy neutrophils remaining: mouse, G-CSF alone.
For series [2], the system named is neutrophils purified from wild-type (WT) mice. Description: fMLP-induced neutrophil polarization (ruffling). The series is classed as cell-based, mouse. The following applies: fMLP 1 μM, FIG. 10. The procedure: FIG. 10A is a series of images showing chemoattractant-induced neutrophil ruffling. Neutrophils (2×10^5) purified from wild-type (WT) mice were plated on LABTEK chamber slides and cultured in RPMI-1640 in the presence or absence of Rac1 inhibitor for 60 minutes. Cells were then uniformly stimulated with N-formyl-met-leu-phe (fMLP, 1 μM). Images were taken 5 minutes after the fMLP stimulation (400×). FIG. 10B is a bar graph showing the percentage of cells that ruffled or extended pseudopods, calculated from images captured 5 minutes after stimulus was added. At least 200 cells were assessed for each sample in each experiment. Data are represented as mean±SD of three experiments. **p<0.001 versus untreated neutrophils.

In the next series the test system is cells. The following applies: even at extremely high concentrations; cited from earlier work.
Series [3] relates to murine neutrophils. Description: In vitro phagocytosis assay, murine neutrophils. The series is classed as cell-based, mouse. Conditions: after one day of culture. The procedure:
In vitro phagocytosis assay: […] pHrodo Red E. coli BioParticles or Zymosan A S. cerevisiae BioParticles (INVITROGEN) were reconstituted in phosphate-buffered saline (PBS) and opsonized with 10% serum at 37° C. for 30 minutes. Neutrophils were incubated with serum-opsonized bioparticles at a ratio of 1:10 (neutrophils:bioparticles) at 37° C. for 0.5 hours. APC-Ly6G (BIOLEGEND, 1A8, 0.2 μg/mL) or APC-CD16 (BIOLEGEND, 51.1, 0.2 μg/mL) antibody was added to the sample to label mouse or human neutrophil membranes. The labeling was achieved by incubating the samples at room temperature for 3 minutes. The number of internalized particles was counted under a spinning disk confocal microscope ([…] VOX). Phagocytosis efficiency was expressed as the percentage of neutrophils that engulfed at least one bioparticle. Phagocytosis index was expressed as the average number of internalized particles per cell. At least 200 cells were counted from random fields per coverslip for each group.

Series [4] has as its system transfused human neutrophils. Description: Survival and function of transfused human neutrophils in vivo in NSG mice.
The next series concerns E. coli. The experiment in a line: Neutropenia-related E. coli-induced pneumonia model (GTX). The series is classed as in vivo, mouse.
The subject of a further series is human neutrophils. The experiment in a line: In vitro neutrophil death / survival of cultured human neutrophils. Conditions: G-CSF alone.
For series [5], the system named is transfused neutrophils. The experiment in a line: In vivo recruitment of transfused neutrophils in a mouse peritonitis model. Conditions: 1-day-old neutrophils. The procedure:
In vivo recruitment of transfused neutrophils in a mouse peritonitis model: Freshly isolated CD45.1^+ or CLON-G-treated (1 day) GFP^+ bone marrow neutrophils were mixed (1:1, a total of 5×10^6/mouse) and injected intravenously into neutropenic recipient mice challenged with TG for 1 hour. At the indicated time points after cell injection, peritoneal cells were harvested by peritoneal cavity lavage with 5 mL of ice-cold PBS/15 mM EDTA, flushed back and forth three times. The relative amount of transfused freshly isolated CD45.1^+ and CLON-G-treated (1 day) GFP^+ neutrophils were analyzed by flow cytometry using a BD FACSCANTO II flow cytometer as described above.

Series [6] relates to neutrophils in the granulocyte apheresis concentrates. Description: Survival and function of neutrophils from human granulocyte apheresis concentrates. It is filed as cell-based. The following applies: cultured for only 1 day, FIG. 6K. The procedure:
Accordingly, the donors were stimulated in the evening and granulocyte collection was carried out the next morning. Neutrophil harvesting was accomplished through the process of apheresis in which red blood cells (RBCs) and plasma were returned to the donor. To collect enough cells for GTX, standard continuous flow apheresis was performed for 1 to 1.5 hours to process 3.5 to 5 liters of blood. Citrate was used as the anticoagulant during collection and calcium gluconate was added to the return line to counteract the citrate-induced hypocalcemic symptoms in the donor. […] The purity was >97% as determined by both Wright-Giemsa staining and flow cytometry analysis with CD15 and CD16 antibodies. […] No contamination of hematopoietic progenitor cells (HPCs) was detected. […] The total initial cell number was counted using a hemocytometer before culture or treatment. At each indicated time point, the total cell number was counted again. […] Apoptotic cells were detected by Annexin V-fluorescein isothiocyanate (FITC) and propidium iodide (PI) staining using an Annexin V Detection Kit (BD BIOSCIENCES) following the manufacturer's protocol. Flow cytometry was performed using a FACSCANTO II flow cytometer and analyzed using […] software (BD BIOSCIENCES). […] Chemotaxis velocity and directionality were analyzed; see e.g., Jia et al. 2007, supra. […]

For series [7], the system named is transfused neutrophils. Description: In vivo recruitment of transfused neutrophils in bacterial pneumonia. Conditions: lungs. Also noted: species or system mouse. The procedure:
In vivo recruitment of transfused neutrophils in bacterial pneumonia: Freshly isolated or CLON-G-treated bone marrow neutrophils were labeled with carboxyfluorescein diacetate succinimidyl ester (CFSE, 5 μM) or seminaphthorhodafluor-1 acetate (SNARF-1, 5 μM) at 37° C. for 10 minutes; labeled cells were mixed (1:1, a total of 5×10^6/mouse) and transfused via the tail vein into the same neutropenic recipient mice challenged with 5×10^3 cfu E. coli for 4 hours. Whole lungs were homogenized 3 hours after neutrophil transfusion. The number of adoptively transferred neutrophils recruited to the lungs was analyzed using a FACSCANTO II flow cytometer and […] software. Relative recruitments of CLON-G-treated and freshly isolated neutrophils were calculated as the ratio of the indicated populations.

In the case of `COC(=O)CNC(=O)C(=O)OC` [DMOG, dimethyloxalylglycine], the “neutrophil half-life in vitro” value in the series with neutrophils was 48 h.

Regarding `C[C@H](NC(=O)C(=O)Nc1ccccc1C(C)(C)C)C(=O)N[C@@H](CC(=O)O)C(=O)COc1c(F)c(F)cc(F)c1F` [Emricasan, N-[2-(1,1-dimethylethyl)phenyl]-2-oxoglycyl-N-[(1S)-1-(carboxymethyl)-2-oxo-3-(2,3,5,6-tetrafluorophenoxy)propyl]-L-Alaninamide, reference compound], the activity in vitro result in the series with caspases is recorded as “sub- to nanomolar”. Further, the “lifespan of cultured neutrophils” value in the series with murine neutrophils [1] (in combination with NAC, Hsp70, DFO, G-CSF, and optionally a RIPK1 inhibitor, FIG. 23, murine bone marrow neutrophils) is “prolonged the lifespan”.

As to `CCN(CC)CCCC(C)Nc1nc(C)cc(Nc2ccc3nc(C)cc(N)c3c2)n1` (centres unmarked) [NSC23766], the fMLP-induced neutrophil polarization result in [2] is “effectively inhibited”.

Regarding `CC(C)C(NC(=O)c1ccc2ccccc2n1)C(=O)NC(CC(=O)O)C(=O)COc1c(F)cccc1F` (stereo not drawn) [Q-VD-Oph, Quinoline-Val-Asp-Difluorophenoxymethylketone], in the series on cells, the toxicity to cells result is reported as “not toxic”.

B1: G-CSF: granulocyte colony-stimulating factor (AMGEN, NEUPOGEN), PI3K/Akt pathway stimulator (protein, listed as Homo sapiens)
chain: MTPLGPASSLPQSFLLKCLEQVRKIQGDGAALQEKLCATYKLCHPEELVLLGHSLGIPWAPLSSCPSQALQLAGCLSQLHSGLFLYQGLLQALEGISPELGPTLDTLQLDVADFATTIWQQMEELGMAPALQPTQGAMPAFASAFQRRAGGVLVASHLQSFLEVSYRVLRHLAQP
In the case of B1, the phagocytosis efficiency result in the series on murine neutrophils [3] is given as “lower”. Further, in series [4] (1 and 2 hours post transfusion), the “recruitment of transfused human neutrophils to the inflamed peritoneal cavity” value was “lower”. Besides, the “human neutrophils left in the peritoneal cavity / cell death” value in series [4] (injected into inflamed peritoneal cavity, each time point) was “faster rates of cell death”. The “phagocytosis efficiency lower than that of fresh human neutrophils” value in [4] (pHrodo-E. coli) is “about 50%”. For the same molecule, the healthy neutrophils remaining in the series with murine neutrophils [1] (after 1 day of treatment) was about 40%; in the series on murine neutrophils [1] (after 3 days of treatment), about 15%; in the series with human neutrophils (after 1 day of treatment), “about 55%”; in the series on human neutrophils (after 3 days of treatment) it was about 15%. Also, the “inflammatory cytokine concentrations (TNF-α, IL-6)” value in the series with E. coli (inflamed lungs, ELISA) is reported as “unable to reduce inflammatory cytokine concentrations”. Moreover, the edema formation result with E. coli (lung, transfusion of treated neutrophils) is “failed to produce the same protective effect”. Also, the “bacteria-killing capacity in neutropenic recipient mice” value in the series with E. coli (transfusion of treated neutrophils, 5×10^3 cfu E. coli) is listed as “ineffective”. In addition, the BALF protein concentrations result with E. coli (transfusion of treated neutrophils, compared with fresh neutrophils) is reported as “remained high”. In addition, the “recruitment efficiency compared to fresh neutrophils” value with transfused neutrophils [5] and in the series with transfused neutrophils [7] was “reduced recruitment efficiency” in each case. Moreover, the “reduction in relative bacterial killing capability” value in series [6] is “more than 50%”.
